Columns and labels:
[1] = Hydrodynamic size by dynamic light scattering (DLS); type: physicochemical
Experimental: Cell culture. Human breast cancer luciferase-overexpressing BT474 and MDA-MB-231 cells were maintained in DMEM medium (Hyclone, Thermo Scientific) supplemented with 10% fetal bovine serum (FBS, Sigma) and 1% penicillin/streptomycin (Corning) at 37° C. in a humidified atmosphere with 5% CO2.^53 • Generation of pRNA nanoparticles. The two strands of pRNA were synthesized with the DNA templates, which were amplified with overlapping primers (Sigma) by PCR methods, using a T7 promoter-controlled in vitro RNA transcription system as previously described^33 (Table 1). […] The hydrodynamic diameter and Tm value of pRNA nanoparticles were determined using dynamic light scattering and TGGE assay, respectively, as previously described.^54 The AFM imaging of the pRNA nanoparticles was performed at the University of Nebraska Medical Center imaging facility as previously reported.^55 Briefly, the pRNA nanoparticles (5 μL) were deposited on APS modified mica ^56 for a total of 2 min of incubation time. […] After washing three times with PBS, the cellular uptake of pRNAs was determined using a BD LSRFortessa™ flow cytometer. • Real-time PCR. […] The expression of MED 1, TFF1, c-Myc, cyclinD1 and MMP-9 was analyzed using GAPDH as the internal reference. • Western blot analyses. […]

[2] = tested on: MCF-7/TAM cells; assay: MTT assay, MCF-7/TAM cells; type: cell-based, human; conditions: 10 μg/mL pRNA and 1 μM tamoxifen, 48 h
Experimental: FIGS. 10A-10D. Evidence that pRNA-HER2apt-siMED1 nanoparticles silenced MED1 expression and sensitized two other HER2+ breast cancer cells to tamoxifen treatment. FIG. 10A) Two HER2-overexpressing breast cancer cell lines MCF7/TAM and FIG. 10B) MCF7/HER2, were treated with 10 μg/mL pRNA-HER2apt-siMED1 nanoparticles or scramble control for 48 h, and then MED1 protein level was determined using western blots. FIG. 10C) MCF7/TAM and FIG. 10D) MCF7/HER2 cells were treated with 10 μg/mL pRNA nanoparticles and/or 1 μM tamoxifen (TAM) as indicated for 48 h, and then cell growth was determined using an MTT assay.
Since MED1 has recently been reported to play key roles in tamoxifen resistance of human breast cancer, the combinational effects of pRNA-HER2apt-siMED1 nanoparticles with tamoxifen on the growth and metastatic potential of BT474 cells was examined. […] The combinational effect of pRNA-HER2apt-siMED1 nanoparticles with tamoxifen treatment on two other HER2-overexpressing breast cancer cells MCF-7/HER2 and MCF-7/TAM were also confirmed (FIGS. 10C-D).

B1: pRNA-HER2apt-siMED1: 3-WJ pRNA nanoparticle bearing a HER2-targeting RNA aptamer and two different MED1 siRNAs; strands p1 SEQ ID NO: 3, p2 SEQ ID NO: 4 (nucleic acid)
chain 1: GGACAGUGAAAGUGAGUCAAAGGAUCAAUCAUGGCCAAAGAUGUUACUUUGAGAGCCUU
chain 2: GGCUCUCAAAGUAACAUCUAAGGCCAUGUGUAUGUGGGGGGAGGACGAUGCGGUCUGCUGUGCUUGAUAUGCCCCAGACGACUCGCCCCCCACAUACUUUGUUGAUCCAAUGACUCACUUUCACUGUCCUU
modifications: 2'-F modification; third strand may lack entry; pRNA-HER2apt-siMED1, p1; pRNA-HER2apt-siMED1, p2
hydrodynamic size [1]: 8.68±1.87 nm | combinational effect with tamoxifen on cell growth [2]: confirmed

Source: patent publication US11110182B2, “Multifunctional RNA nanoparticles and methods for treating cancer and therapeutic resistant cancer” (University of Cincinnati, priority 2016, dated 2021)
